Primed or numbered codes have the meaning given here. * marks the point of attachment. EDANS′ = N-[2-[(5-sulfo-1-naphthalenyl)amino]ethyl]-L-α-glutamine (donor); DABCYL = 4-((4-(dimethylamino)phenyl)azo)benzoyl (quencher); Benzoyl(2-NHMe) = CNc1ccccc1C(=O)*
Biological target: presenilin homolog from the methanogen Methanoculleus marisnigri JR1, wild type (Methanoculleus marisnigri JR1)

Km of cleavage, FRET enzyme kinetics assay (Michaelis-Menten), in DDM, no inhibitor, 37 °C, 500 nM MCM.IAP [µM]	Km of cleavage, FRET enzyme kinetics assay (Michaelis-Menten), in bicelles (DMPC/CHAPSO) [µM]	Km of cleavage, FRET enzyme kinetics assay (Michaelis-Menten), in DDM [µM]	Binder
4.9	6.3	–	{EDANS′}-LVIVGLTFAV-{DABCYL} [ErbFRET EDANS-…-DABCYL]
–	2.8	7.5	{Benzoyl(2-NHMe)}-GGVVIATV-{Lys(DNP)} [C100FRET NMA-GGVVIATV-DNP]

— publication PMC10679502
